Key:
[1] = target: T1, rNav1.2a VSD IV paddle peptide (R1629A/L1630A, SEQ ID NO: 4) (Rattus norvegicus, UniProt P04775, L1630A/R1629A); assay: SPR on immobilized rNav1.2a VSD IV paddle peptide; type: binding; conditions: 100 nM toxin; 500 fmol peptide
T1 construct: purchased ProteoGenix; host or cells: chemical synthesis (Fmoc solid phase)
T1 sequence (P04775 1605-1636 R1629A/L1630A): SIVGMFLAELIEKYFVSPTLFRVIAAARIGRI

[2] = target: T2, rNav1.2a VSD II paddle peptide (V843A, SEQ ID NO: 2) (Rattus norvegicus, UniProt P04775, V843A); assay: SPR on immobilized rNav1.2a VSD II paddle peptide; type: binding; conditions: 100 nM toxin; 500 fmol peptide
T2 construct: purchased ProteoGenix; host or cells: chemical synthesis (Fmoc solid phase)
T2 sequence (P04775 832-856 V843A): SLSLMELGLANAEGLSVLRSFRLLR
Protocol: SPR experiments were performed at 25° C. on a Biacore™ T200 instrument (GE Healthcare) using 150 mM NaCl, 3 mM EDTA, 0.005% surfactant P20, and 10 mM HEPES-NaOH, pH 7.4, for the coupling protocol or 50 mM phosphate, pH 7.2, as running buffer. Neutravidin (Thermo Fisher Scientific) was immobilized on CM5 sensor chips (GE Healthcare) using an amine coupling chemistry. All chemicals were obtained from Sigma-Aldrich. […] In all SPR experiments, nonspecific binding obtained in the control flow cell was subtracted from the signal obtained in the experimental flow cell. For qualitative binding analysis, toxins (100 nM in running buffer containing 0.1% BSA) were injected at a flow rate of 20 μl/min over 2 min. […] In between injections, the surface of the sensor chip was regenerated by injecting 1 M NaCl (15 s at 30 l/min). The bulk signal caused by refractive index differences between the flow buffer and the buffer containing the analyte was systematically excluded from the data-fitting process. It is worth noting that isolating a paddle motif (ligand) can induce conformational changes that can affect toxin (analyte) efficacy. […] Sensorgrams can reveal such ligand heterogeneity by displaying biphasic dissociation curves that cannot be fitted with the frequently used Langmuir model, which assumes a 1:1 stoichiometry of analyte to ligand. To account for a possible heterogeneity of surface sites, we calculated the rate constants and affinity equilibrium dissociation constants (KD) for AaHII by a fit to a heterogeneous ligand model incorporated into the Biacore T200 Evaluation™ software (v1.0). This model assumes the presence of two sites on the ligand that can bind analyte and can be described by these equations in which A represents the analyte and B1/B2 represents the heterogeneous ligand:
(A) Shown are the CD spectra of the rNav1.2a VSD II and IV paddle peptides used in this paper. […] (B) Representative association and dissociation kinetic curves obtained using SPR after the application of varying concentrations of AaHII (15-2,000 nM) over a sensor chip to which 50 fmol of the rNav1.2a VSD IV paddle peptide was linked. Toxin was applied after obtaining a steady baseline. Colored traces represent toxin binding obtained after subtraction of the signal from the control flow cell. […] Toxin concentrations are indicated on the right in a shade of gray corresponding to the sensorgram. (C) Representative SPR traces after the application of 100 nM KTX, AaHI, AaHII, LqqV, BomIV, TsVII, and CssIV over a sensor chip to which the rNav1.2a VSD II (left) or IV (right) paddle peptide (500 fmol) was linked. Toxin was applied after obtaining a steady baseline. (D) Binding capacities of 100 nM α-scorpion toxins AaHI, AaHII, LqqV, the α-like scorpion toxin BomIV, and the β-scorpion toxins TsVII and CssIV to the VSD II and IV paddle motifs using SPR (error bars represent±SEM). Y-axis represents the maximum RUs obtained after toxin application.
Next, the VSD IV peptide was fixed on SPR sensor chips by adding a K-linked biotin group to the C terminus, resulting in a 32-amino acid peptide altogether (SEQ ID NO: 4 which is mutated SEQ ID NO: 3 of FIG. 2A).

rNav1.2a = assay: Two-electrode voltage-clamp, rNav1.2a expressed in Xenopus oocytes; type: cell-based, rat; conditions: 100 nM toxin; for effect on rNav1.2a fast inactivation: 50-ms test pulse; for fast inactivation time constant (τ) after toxin application: single-exponential fit of current decay, n=3, mean±SEM
Excerpt: (§1) The DNA sequence of rat (r)Nav1.2a (provided by A. Goldin, University of California, Irvine, Irvine, Calif.), rKv2.1 (provided by K. J. Swartz, National Institutes of Health), and the rNav1.2a/Kv2.1 VSD II or IV chimera was confirmed by automated DNA sequencing, and cRNA was synthesized using T7 polymerase (mMessage mMachine™ kit; Life Technologies) after linearizing the DNA with appropriate restriction enzymes. Channels were expressed in Xenopus oocytes (obtained from Xenopus 1) and studied after a 1-d incubation after cRNA injection (incubated at 17° C. in 96 mM NaCl, 2 mM KCl, 5 mM HEPES, 1 mM MgCl2, 1.8 mM CaCl2, and 50 μg/ml gentamycin, pH 7.6 with NaOH) using two-electrode voltage-clamp recording techniques (OC-725C; Warner Instruments) with a 150-μl recording chamber. Data were filtered at 4 kHz and digitized at 20 kHz using pClamp™ 10 software (Molecular Devices). Microelectrode resistances were 0.5-1.5 MΩ when filled with 3 M KCl. For Kv chimera channel experiments, the external recording solution contained (mM): 50 KCl, 50 NaCl, 5 HEPES, 1 MgCl2, and 0.3 CaCl2, pH 7.6 with NaOH. For rNav1.2a experiments, the external recording solution contained (mM): 100 NaCl, 5 HEPES, 1 MgCl2, and 1.8 CaCl2, pH 7.6 with NaOH. All experiments were performed at ˜22° C. Leak and background conductances, identified by blocking the channel with agitoxin-2 (provided by K. J. Swartz), have been subtracted for all of the Kv channel currents shown. […] Voltage-activation relationships were obtained by measuring tail currents for Kv channels or steady-state currents and calculating conductance for Nav channels, and a single Boltzmann function was fitted to the data according to I/Imax=[1c+cexp(−zF(Vc−cV1/2)/RT)]^−1, where I/Imax is the normalized tail-current amplitude, z is the equivalent charge, V1/2 is the half-activation voltage, F is Faraday's constant, R is the gas constant, and T is temperature in kelvin. For all channels, voltage-activation relationships were recorded in the absence and presence of toxin. The ratio of currents (I/I0) recorded in the presence (I) and absence (I0) of toxin was calculated for voltages typically ranging from −140 to 10 cmV, depending on the construct. […] The apparent equilibrium dissociation constant (apparent KD) for Kv channels was calculated according to KD=((1/(1c−cFu^1/4))c−c1)[toxin], assuming four independent toxin-binding sites per channel. Results are given as mean±SEM unless noted otherwise. Offline data analysis was performed using Clampfit 10™ (Molecular Devices), Origin 8.0™ (OriginLab), and Excel™ (Microsoft). All chemicals were obtained from Sigma-Aldrich.
(§2) Representative sodium currents were elicited by a 50-ms depolarization to a suitable membrane voltage (−20 to −15 mV) before (black) and after toxin addition (green) from a holding voltage of −90 mV. […] For each toxin, K^+ currents were elicited by a 300-ms depolarization to 0 mV from a holding voltage of −90 mV (tail voltage was −60 mV). […] For each toxin, K^+ currents (top) were elicited by a 300-ms depolarization near the foot of the voltage-activation curve (bottom) from a holding voltage of −90 mV.

WT rKv2.1 = assay: Two-electrode voltage-clamp, WT rKv2.1 in Xenopus oocytes; type: cell-based, rat; conditions: 1 μM toxin
Excerpt: The DNA sequence of rat (r)Nav1.2a (provided by A. Goldin, University of California, Irvine, Irvine, Calif.), rKv2.1 (provided by K. J. Swartz, National Institutes of Health), and the rNav1.2a/Kv2.1 VSD II or IV chimera was confirmed by automated DNA sequencing, and cRNA was synthesized using T7 polymerase (mMessage mMachine™ kit; Life Technologies) after linearizing the DNA with appropriate restriction enzymes. Channels were expressed in Xenopus oocytes (obtained from Xenopus 1) and studied after a 1-d incubation after cRNA injection (incubated at 17° C. in 96 mM NaCl, 2 mM KCl, 5 mM HEPES, 1 mM MgCl2, 1.8 mM CaCl2, and 50 μg/ml gentamycin, pH 7.6 with NaOH) using two-electrode voltage-clamp recording techniques (OC-725C; Warner Instruments) with a 150-μl recording chamber. Data were filtered at 4 kHz and digitized at 20 kHz using pClamp™ 10 software (Molecular Devices). Microelectrode resistances were 0.5-1.5 MΩ when filled with 3 M KCl. For Kv chimera channel experiments, the external recording solution contained (mM): 50 KCl, 50 NaCl, 5 HEPES, 1 MgCl2, and 0.3 CaCl2, pH 7.6 with NaOH. For rNav1.2a experiments, the external recording solution contained (mM): 100 NaCl, 5 HEPES, 1 MgCl2, and 1.8 CaCl2, pH 7.6 with NaOH. All experiments were performed at ˜22° C. Leak and background conductances, identified by blocking the channel with agitoxin-2 (provided by K. J. Swartz), have been subtracted for all of the Kv channel currents shown. […] For all channels, voltage-activation relationships were recorded in the absence and presence of toxin. The ratio of currents (I/I0) recorded in the presence (I) and absence (I0) of toxin was calculated for voltages typically ranging from −140 to 10 cmV, depending on the construct. […] The apparent equilibrium dissociation constant (apparent KD) for Kv channels was calculated according to KD=((1/(1c−cFu^1/4))c−c1)[toxin], assuming four independent toxin-binding sites per channel. […]

[3] = system: rNav1.2a/Kv2.1 VSD IV paddle chimera; assay: Two-electrode voltage-clamp, rNav1.2a/Kv2.1 VSD IV paddle chimera in Xenopus oocytes; type: cell-based, rat; conditions: 100 nM toxin; for depolarizing shift in midpoint (V1/2): Boltzmann fit, n=3
Excerpt: as §1, §2

[4] = system: rNav1.2a/Kv2.1 VSD IV paddle chimera; conditions: cited from earlier work
[5] = target: rNav1.2a/Kv2.1 VSD II paddle chimera; conditions: read-out: apparent KD, paddle motif in the domain II voltage sensor; cited from earlier work
rNav1.2a/Kv2.1 VSD II paddle chimera, sequence (P04775 832-856 limits assumed, change not shown): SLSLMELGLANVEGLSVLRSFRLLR

rNav1.2a/Kv2.1 VSD IV paddle chimera, sequence (P04775 1605-1636 limits assumed, change not shown): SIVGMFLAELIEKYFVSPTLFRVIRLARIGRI

| Molecule | SPR binding to VSD IV paddle peptide [1] | SPR binding to VSD II paddle peptide [2] | effect on rNav1.2a fast inactivation (rNav1.2a) | fast inactivation time constant (τ) after toxin application (rNav1.2a) | effect on WT Kv2.1 K+ current (WT rKv2.1) | K+ current inhibition of VSD IV chimera [3] | depolarizing shift in midpoint (V1/2) [3] | binding to the VSD IV paddle, electrophysiological data from chimeras [4] | Kd [5] |
| --- | --- | --- | --- | --- | --- | --- | --- | --- | --- |
| kaliotoxin (GVEINVKCSGSPQCLKPCKDAGMRFGKCMNRKCHCTPK) [KTX, negative control, reference compound] | did not bind | did not bind |  |  |  |  |  |  |  |
| LqqV: Nav channel-selective α-scorpion toxin from Leiurus quinquestriatus hebraeus (protein) LKDGYIVDDKNCTFFCGRNAYCNDECKKKGGESGYCQWASPYGNACWCYKLPDRVSIKEKGRCN |  | a response was not obtained | inhibits rNav1.2a fast inactivation | 4.6±0.1 | insensitive | robust voltage-dependent K^+ current inhibition | > 50 mV |  |  |
| TsVII: β-scorpion toxin from the Brazilian scorpion Tityus serrulatus (protein, UniProt P15226 21-81, looked up) Beta-mammal/insect toxin Ts1: KEGYLMDHEGCKLSCFIRPSGYCGRECGIKKGSSGYCAWPACYCYGLPNWVKVWDRATNKC | responded | responded |  |  |  |  |  | can also bind | 0.112 ± 0.012 µM |
| AaHI: Nav channel-selective α-scorpion toxin from Androctonus australis hector (protein) KRDGYIVYPNNCVYHCVPPCDGLCKKNGGSSGSCSFLVPSGLACWCKDLPDNVPIKDTSRKCT |  | a response was not obtained | inhibits rNav1.2a fast inactivation | 4.7±0.1 | insensitive | robust voltage-dependent K^+ current inhibition | ~15 mV |  |  |
| BomIV: α-like scorpion toxin from Buthus occitanus mardochei (protein) GRDAYIAQPENCVYECAKNSYCNDLCTKNGAKSGYCQWLGKYGNACWCEDLPDNVPIRIPGKCHF |  | a response was not obtained | inhibits rNav1.2a fast inactivation | 8.5±0.1 | insensitive | robust voltage-dependent K^+ current inhibition | ~26 mV |  |  |

Reference: patent publication US10429300B2, “Surface plasmon resonance approach to monitor protein-ligand interactions” (The Johns Hopkins University, priority 2015, dated 2019)
